Laboratory results taken from a protein production outcome set (Wang et al. 2014).

Assay: label from the status in PepcDB records
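Also: failed if final PepcDB status was selected cloned or expressed and not failed if soluble or beyond.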

Sequence | protein production
MESVYLFSSGTLKRKANTICLETESGRKYIPVENVMDIKVFGEVDLNKRFLEFLSQKRIPIHFFNREGYYVGTFYPREYLNSGFLILKQAEHYINQEKRMLIAREIVSRSFQNMVDFLKKRKVRADSLTRYKKKAEEASNVSELMGIEGNAREEYYSMIDSLVSDERFRIEKRTRRPPKNFANTLISFGNSLLYTTVLSLIYQTHLDPRIGYLHETNFRRFSLNLDIAELFKPAVVDRLFLNLVNTRQINEKHFDEISEGLMLNDEGKSLFVKNYEQALRETVFHKKLNRYVSMRSLIKMELHKLEKHLIGEQVFGSEE | not failed
MGPPERPSLGWTPKEADMQSGPQPDEWSSGWKPGDGGAAPLPLSPALSFLLLFPLASALQPTPLPFPELRLVGGPSRCRGRLEVMHSGSWGSVCDDDWDVVDANVVCRQLGCGLALPVPRPLTFGQGRGPIFLDNVECRGQEASLSECGSRGWGVHNCFHYEDVAVLCDEFLHTQPPARKVLTSIAPPTALQNGRGEGSVRLAGGASPCQGRVEILHGGLWGTVCDDDWGLPDAAVVCRQLGCGAALAATTNAFFGYGTGHILLDNVHCEGGEPRLAACQSLGWGVHNCGHHEDAGVLCAATGVGALPSRDTIRFTTAAWASGKKSGRLRLVGGPSPCRGRVEVLYAGGWGTVCDDDWDFADARVACREAGCGPALGATGLGHFGYGRGPVLLDNVGCTGTEARLSDCFHLGWGQHNCGHHEDAGALCAGEAVESDKEAAQAEQAGLRAHKRGSVHARTNNMGPEELGLQVQQDGSETTRMPSPRPRDGHLRLASGTHRCEGRVELFLGQQWGTVCDDAWDLRAAIVLCRQLGCGQALAALGEAHFGPGRGPILLDNVKCRGDESTLLLCSHIRWDVHNCDHSEDASVLCQPL | failed
MPTKKMTRAQTCPHQTTVISNLKIIPLTLGWLLKSALLIIIIAVFIPLSPKMPAPGLDASWAVGLNQAVAQGLAFGKDIFFTLGPYSSIYTKFYHPATDFMMVGGSLYLALCYWIAIILLMQGIKWRWSIAFAILLFSMIYARDSLFFSYSLIIGLLIHKEISGKETSFKSNFCTLFALLFTPFGLFPLIKGSLLILSIITVLLCSLFLILYKQRNLAVLCLASPVVSILFFWIASGQSIFNLPAYVSNTILLASGFTEAMAIEGDNKELIFFGVTSSCILLSILLQKQLSPLSKAFLFCIYLVFLFLSYKTGFTRHFGHAFIAGTSVLLASFLLPYFNSNNKVIVPLLALSLYTASYINGHYTKISVRDNFISTYTAAYYGLKNRIQNKNWLKENFSLTMNYLKARDDFPRLPGTTDIYSYNQTSLIASGMTWSPRPIFQSYSVFTAKMAEINTNYLLSENKPDNILFKVEPIDNRIPSMEDGMSWPILINHYQPVRLENDFLFLRKKLVNKPVTSLVPLKTEIHTFGEQVKIPDTDKSLFVEIDIQPTLWGMLATTFFKPHQLEANLELKNGTQRQYRLISNMAKSGFLLSPFIENSAEFGLLFSQNNYLAGKKVISFSINSKQVPSSHWQTKYTIHYKTFASNN | failed
MSRGHCILAHGFESGPDALKVTALAEVAERLGWTHERPDFTDLDARRDLGQLGDVRGRLQRLLEIARAATEKGPVVLAGSSLGSYIAAQVSLQVPTRALFLMVPPTKMGPLPALDAAAVPISIVHAWHDELIPAADVIAWAQARSARLLLVDDGHRLGAHVQAASRAFAELLQSL | not failed
MLKKITCYTVLYIFILLNQPIQAQTYVIPDANFKNYLALNIPYVLNSNQELIISNAKIFTGTINCVGMNIEDLSGLQYFYKLTQLNCNSNQLTFLPSLDSLKQLQHMWVYNNKLTSIPSVNQLTNLQTLNVKNNQLTNLPSLTGMTALKSLDCSSNKLTALPDLSTLLNLEEMYCYINFITNIPSVSNLLHLKIFNIENNAIALLPDISQNTKLEILQFDLNQIETIPPLTTLTALKQLIFAHNKISTLPDLSANTALFIITGDNNQLTHIPDLSGFDNLTHVELSHNQLTFEDILPSSKHPQFSTVFNIQPQDSLNVNQPVSAVKGSTITLPLQFDLAVSGSTYNWYKNNIYLSSTTIPVLTLSNITEMNAGRYTCIITNNTSRLTGITLHARSYSILVEPCIKFSYINYEITANDCSKGAAIQIDHTQISALNTPLTYALHPLNNQSSITSASAVLNDVMPGRYSLTISDVNNCSVELQNYIFIPVPAGCMDSFTPNGDGLEDTYLIDKPGYTKIYNKNGTLIRTLNTPAAWDGSDESGKLCPMGYYIIIIDGKEKTGVVLIN | failed
MEKVAFIGLGAMGYPMAGHLARRFPTLVWNRTFEKALRHQEEFGSEAVPLERVAEARVIFTCLPTTREVYEVAEALYPYLREGTYWVDATSGEPEASRRLAERLREKGVTYLDAPVSGGTSGAEAGTLTVMLGGPEEAVERVRPFLAYAKKVVHVGPVGAGHAVKAINNALLAVNLWAAGEGLLALVKQGVSAEKALEVINASSGRSNATENLIPQRVLTRAFPKTFALGLLVKDLGIAMGVLDGEKAPSPLLRLAREVYEMAKRELGPDADHVEALRLLERWGGVEIR | not failed
SPKMDVHETDHEVILECDIPGLESKEDLQIDVEPRSVRIEGRIKRSKEVHDERFYRREREIGHFRRVVPLPAEVAEDDIRAAYRNGVLEVRMRKRLDDRRRTIDVEFH | failed
MLKNLRLKSFQPEEEYVHFTYSIKNDKREESKELIKEYTTLLQKAIDYLWSLTKIQVRKNGNYKITLPKKKEVYKPLRDELEKINHLASHYVDKAINDAFSILKSWRKRAIKGRASIEKPRVKKAYVRIKTTLRKVVGESVRITVRPYEYITFSWSKSWFSRRVRELELGEPIIKEEKVYLPFRYKLPWATPLNFLAIDSNLYTLDAYDGEKFVTISLKQLYSLKYSMEVKRAKVQSFASKHTKRGRELLRKYSHRERNRVLDFVHKFVNALLDLYPMTFFAVEKLNKESMFVDANDSLSRKISRTVWRSIHRVLKYKAPLYGSFVKEVNPRFTSRSCPRCGFVSRKVGKTFECERCGFKLDRQLNASLNIYLKMCGFPHIRDIARVWVGVIPLMGRRGMNGFPRDFGEAQGLRIDIKYHEIP | failed
MTAEIDIQNSIRLELSRHGHYVFRANVGKVRMPNGRIFDTGLPKGFPDLFGFRGTDGKMFFIEVKNEIGKLRQEQKNFQQAMEITPAIGVARSAEEALKIVEGLEHHHHHH | failed
MGHHHHHHSHMDVTIQHPWFKRTLGPFYPSRLFDQFFGEGLFEYDLLPFLSSTISPYYRQSLFRTVLDSGISEVRSDRDKFVIFLDVKHFSPEDLTVKVQDDFVEIHGKHNERQDDHGYISREFHRRYRLPSNVDQSALSCSLSADGMLTFCGPKIQTGLDATHAER | failed
GVQKVDKARKQITVAGGTRINEVGKTLKQHGLSLINQGDIDSQAVAGAFTTGTHGTGIKLGNMASSIAGMRIVKANGEILDIDGSDEELLHAAQVSVGTLGIISSMTLNVMDA | failed
MGHQSSWMKQTVIDSVVQSSKVGVFSMFSMDYKAPRKYSHGRNFGVARQQDFAADIVTRRPYAPYDNGMKKGPNKLSRNLVWTSKEYKSPEGNRPRQNAANGSAKPQVIGTGHRVSNQPRKNAVYGPRSSSLSDTRGCGPRLNGSPKKSVCNFWKDGNCKKGEKCQFLHSWSCFPGLAMVAALEGHKNDIKGIALPQGSDKLFSVSGDGTLLIWDCNSGQCVRSINLQAEAGSLISEGPWVFLGLPNAVKAFNVQNSKDVHLEGVVGQVHAMTAANGMLFAGTSSGSILVWKATDSESDPFKYLTSLEGHHSGEVTCFVVGGEVLYSGSVDKTIKVWDLNTLQCRMTLKQHIGTVTSLLCWDKCLISSSLDGTIKLWACSENESLKVVQTRKQELSVHTLCGMHDAEAKPIMFCSYQNGAVGIFDLPSFEERGKMFSTQTICTLTIGPGGLLFSGDKSGNLRVWSLASGTKV | failed
MAFQVKIHQIRAFVEVARQGSIRGASRMLNMSQPALSKSIQELEEGLAAQLFFRRSKGVTLTDAGESFYQHASLILEELRAAQEDIRQRQGQLAGQINIGMGASISRSLMPAVISRFHQQHPQVKVRIMEGQLVSMINELRQGELDFTINTYYQGPYDHEFTFEKLLEKQFAIFCRPGHPAIGARSIKQLLDYSWTMPTPHGSYYKQLSELLDDQAQTPQVGVVCETFSACISLVAKSDFLSKLPEEMGCDPLHGQGLVMLPVSEILPKAAYYLIQRRDSRQTPLTASLITQFRRECGYLQS | failed
SAFQAAAARLGAPVSHDFCAISLSDLMTPWEVIEKRIEAAASADFVTAVYNPRSRDRYWQIHRFRELFLRHRSPSTPVGIVRNVTRKDESVVLTTLGEFDPDSLDMFTMMLVGNSTTF | not failed
SPINPYKDHMSVLKAYYAMNMEPNSDELLKISIAVGLPQEFVKEWFEQRKVYQYSNSR | not failed
MTQHITRMRREIDEIPEAVQRLLDHGAQDVARVAAVLRLRDPSFVATVARGSSDHVCTYLSYAAELLLGLPVASLGPSVASVYDARLRLDRALCLAVSQSGKSPDIVAMTRNAGRDGALCVALTNDAASPLAGVSAHTIDIHAGPELSVAATKTFVTSAVAGLMLLADWAEDDGLRAALGNLPETLAAASRIDWPEMRVAIGARPSLFTLGRGTSLAVSNEAALKFKETCQLHAESYSSAEVLHGPVSIVEEGFPVLGFAAGDAAEAPLAEIADQIAAKGATVFATTGRVTRARVLEHVRSGHALTDPLSLIVSFYSMVEAFASERGIDPDAPRHLNKVTETV | not failed
MDYNKTAKDILKLLGGEKNVMSAAHCATRLRLVLKNEKEARTKEIEKLDGVKGVFSSSGQYQIIIGQGSVNKVYKAFVEGTGISESSLSDTKKAAMKNM | not failed
MGSGGVVHCRCAKCFCYPTKRRIRRRPRNLTILSLPEDVLFHILKWLSVEDILAVRAVHSQLKDLVDNHASVWACASFQELWPSPGNLKLFERAAEKGNFEAAVKLGIAYLYNEGLSVSDEARAEVNGLKASRFFSLAERLNVGAAPFIWLFIRPPWSVSGSCCKAVVHESLRAECQLQRTHKASILHCLGRVLSLFEDEEKQQQAHDLFEEAAHQGCLTSSYLLWESDRRTDVSDPGRCLHSFRKLRDYAAKGCWEAQLSLAKACANANQLGLEVRASSEIVCQLFQASQAVSKQQVFSVQKGLNDTMRYILIDWLVEVATMKDFTSLCLHLTVECVDRYLRRRLVPRYRLQLLGIACMVICTRFISKEILTIREAVWLTDNTYKYEDLVRMMGEIVSALEGKIRVPTVVDYKEVLLTLVPVELRTQHLCSFLCELSLLHTSLSAYAPARLAAAALLLARLTHGQTQPWTTQLWDLTGFSYEDLIPCVLSLHKKCFHDDAPKDYRQVSLTAVKQRFEDKRYGEISQEEVLSYSQLCAALGVTQDSPDPPTFLSTGEIHAFLSSPSGRRTKRKRENSLQEDRGSFVTTPTAELSSQEETLLGSFLDWSLDCCSGYEGDQESEGEKEGDVTAPSGILDVTVVYLNPEQHCCQESSDEEACPEDKGPQDPQALALDTQIPATPGPKPLVRTSREPGKDVTTSGYSSVSTASPTSSVDGGLGALPQPTSVLSLDSDSHTQPCHHQARKSCLQCRPPSPPESSVPQQQVKRINLCIHSEEEDMNLGLVRL | failed
MSLTFPTLSPTQIIQYIHLGSFLNAHNVDYIHNNNISSILLVGIEVPSLFKDQCDILRLDIVSEEGHQLYDSIPNAIKFIIRSIQRKEGVLIISGTGVNKAPAIVIAFLMYYQRLSFINAFNKVQGLYPLIDIESGFILQLKLFEKKLEKMNSEGHHHHHH | not failed
MSLTSVVFLNPGNSTETFWVSYSQFMQAAARDLGLDLRILYAERDPQNTLQQARELFQGRDKPDYLMLVNEQYVAPQILRLSQGSGIKLFIVNSPLTLDQRELIGQSRQNYSDWIGSMVGDDEEAGYRMLKELLHKLGPVPAGHGIELLAFSGLKVTPAAQLRERGLRRALAEHPQVHLRQLVYGEWNRERAYRQAQQLLKRYPKTQLVWSANDEMALGAMQAARELGRKPGTDLLFSGVNSSPEALQALIDGKLSVLEAGHFTLGGWALVALHDDALGLDARRLGGPDWQLSLFQALTPAQARQLLRLGDQVGTRVDFRGLSAQGKPDSYRYPFGLQLLLREGHHHHHH | not failed
